From the DeepSol protein solubility set come the findings set out here.

A short description of this series: soluble on expression in E. coli; label from the status in PepcDB or PDB records.
Consider “FISRFAPDQPRKGADILVEALERQGVETVFAYPGGASMEIHQALTRSSSIRNVLPRHEQGGVFAAEGYARSSGKPGICIATSGPGATNLVSGLADALLDSVPLVAITGQVPRRMIGTDAFQETPIVEVTRSITKHNYLVMDVEDIPRIIEEAFFLATSGRPGPVLVDVPKDIQQQLAIPNWEQAMRLPGYMSRMPKPPEDSHLEQIVRLISESKKPVLYVGGGCLNSSDELGRFVELTGIPVATTLMGLGSYPCDDELSLHMLGMHGTVYANYAVEHSDLLLAFGVRFDDRVTGKLEAFASRAKIVHIDIDSAEIGKNKTPHVSVCGDVKLALQGMNKVLENRAEELKLDFGVWRNELNVQKQKFPLSFKTFGEAIPPQYAIKVLDELTDGKAIISTGVGQHQMWAAQFYNYKKPRQWLSSGGLGAMGFGLPAAIGASVANPDAIVVDIDGDGSFIMNVQELATIRVENLPVKVLLLNNQHLGMVMQWEDRFYKANRAHTFLGDPAQEDEIFPNMLLFAAACGIPAARVTKKADLREAIQTMLDTPGPYLLDVICPHQEHVLPMIPSGGTFNDVITEGDGRIKY”, for which the “soluble on expression in E. coli” value is given as “soluble”. As for “MSTKADNRHLYLKVIERIKEDIKNGIYTEKEKLPSEFELSKKLGVSRATLREALRILEEEHVIIRRHGVGTFVHSKPLFLSGIEQLNSVTKMIEQANMTPGTIFLSSQVLMPSEDDTKRFHLAEGQELFYLERVRTADGQPIVYCIDKIPMNILPNSFSHQQESMFDLLEKNSGSVISYAVTDIEPIGYHDTISPVLECDPETALLLLKQTHYDQHDKPVLYSLNYFRADKFRFHVLRKRF”, the “soluble on expression in E. coli” value is given as “not soluble”. The entry for “MIIDQQLVCYKRLPNWTATTLPEMVTQKHNTKVGTWAKLTILSGTLHFYELDEQGEITAEHLFTPETEIPFVEPQSWHRIAAASDNLECYLSFYCKPEDYMAKKYDTKAHSEVLEAVQSGHIKPGRTLDLGCGHGRNALYLASLGHEVTAVDINNEATQRIQMIADEESYNVRAGYYDINVSALPESETFDFILSTVVFMFLDPNQIPAIIQNMQERTSIGGYNLIVCAMDTEEHPCTMPFPFTFEEGELKNYYSDWELIKYNENLGHLHRLDEHGNPIALQFATMLAKKVTLEHHHHHH” is “soluble”; for “RDHIILIGWNEKTNRLLKDLQLGAPSKTVVLIDESLTEGPLIENVHFIRGHAADDGTLKRANITEAESVMITADQYKSETDADMLSVLTLLSVKGLNPLAYCIVEILTDRFVTNAERAGANQIIGTSEFISRAMLQHYQVKLR” it is “not soluble”. Consider “MIAKISHGSSLYGVLAYNQLKVDERHADVLFTSRIIEPQGDNPYTIGHLSRSFGDYLTANRKTEKPVLHISLNPDPKDCLSEERFVSLAEEYMRRMGFGDQPYIVYRHNDIGREHLHIVSVRVDETGRAISDSYEHGRSMKVCRELERQFGLVLATPKQWKEGLPLSPVGYGDGNLKGQLAGVIRPIAREWRFRTLGEYRAVLSLYGITVDEVKGEYGGREYHGLTYSATDREGNKIGKPFKSSVFGKETGVAALERRMHNAAAWEKTHKEVAAATAGKVAAAMQTAGHDRAQFERELMRQGIGVVFRQNETGRIYGATFIDHAAKAVFNGSRLGKEFSAGVFNDLFAGQEGIHLPQPSAEVEHPTRQQEHTDISQWDGQDTGYRPDHKDGTTQNVAAAFNLFAPVPGGASGDQPVPLRKRKKKRKYGRQQLEHHHHHH”, for which the “soluble on expression in E. coli” value is “not soluble”.

For “MVNNEYQQLNTLVESDDEADLVIANLVKQLNELKQILVSLDNQEASATAVTDKKEEEYNQNQSSFHNFSKETLQKQAKRGFLLLERCSLVGLQQLELEYVNLLGRSFDSYQQKTELLNNLKELVDEHFSDTEKIINTLEKIFDVIGGSEYTPVLNSFFNKLLSDPDPIQREIGLRQFIITLRQRFKKLSQKIDSSLKQIETEAKIATEQVQNSEVMFGPPDIANDHELNLNWPDSETDAILSSMENELEAALLAKHQEEPPLIVTPPSLIKPTVSQPEVEVVTPTNNTNFQPQVDLKPTDLKKQQKKKPLNFITRPVFKSNLPPKLSKDDIVHYAHQLLEKNTHNE”, the “soluble on expression in E. coli” value is recorded as “soluble”.
